The text below walks through data of US20230192824A1 (UNITED STATES OF AMERICA AS REPRESENTED BY THE SECRETARY OF …, published 2023).

Substitutions are numbered along the chain they refer to. Some results are limits rather than exact numbers.

Assay [1] concerns the target CooD, tip adhesin of CS1 fimbriae on wild type ETEC strain WS1974A (Escherichia coli (ETEC) strain WS1974A). In words: cell-based or functional assay.
The target of assay [2] is T1, CotD, tip adhesin of CS2 fimbriae on wild type ETEC strain C91f (Escherichia coli (ETEC) strain C91f).
T1 chain: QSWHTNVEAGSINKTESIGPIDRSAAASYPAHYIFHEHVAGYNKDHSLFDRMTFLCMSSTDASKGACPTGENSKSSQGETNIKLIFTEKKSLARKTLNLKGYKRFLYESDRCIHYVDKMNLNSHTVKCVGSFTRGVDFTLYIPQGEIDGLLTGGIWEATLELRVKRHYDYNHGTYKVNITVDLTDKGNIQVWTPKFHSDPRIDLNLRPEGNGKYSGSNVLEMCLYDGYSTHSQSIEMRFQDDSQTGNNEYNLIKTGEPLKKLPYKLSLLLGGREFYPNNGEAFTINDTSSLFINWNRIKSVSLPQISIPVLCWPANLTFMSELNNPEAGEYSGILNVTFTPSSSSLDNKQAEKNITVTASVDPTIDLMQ
Kind of assay: cell-based or functional assay.

Assay [3] addresses CsuD, tip adhesin of CS14 fimbriae on wild type ETEC strain WS3294A (Escherichia coli (ETEC) strain WS3294A). Kind of assay: cell-based or functional assay.
Assay [4] concerns the target T2, CfaE, tip adhesin of CFA/I fimbriae on wild type ETEC strain H10407 (Escherichia coli (ETEC) strain H10407, UniProt P25734 23-360).
T2 sequence: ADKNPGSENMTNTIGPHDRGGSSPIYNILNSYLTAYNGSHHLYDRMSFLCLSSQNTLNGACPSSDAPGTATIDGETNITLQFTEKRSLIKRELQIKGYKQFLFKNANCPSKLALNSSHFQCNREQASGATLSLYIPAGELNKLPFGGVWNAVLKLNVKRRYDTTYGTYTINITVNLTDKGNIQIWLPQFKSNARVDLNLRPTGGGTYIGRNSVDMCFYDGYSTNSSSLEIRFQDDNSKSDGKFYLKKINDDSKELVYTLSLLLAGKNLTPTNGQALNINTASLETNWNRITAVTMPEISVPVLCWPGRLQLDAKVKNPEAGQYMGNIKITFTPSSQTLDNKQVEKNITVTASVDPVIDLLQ
In words: cell-based or functional assay.

Assay [5] addresses CsfD, tip adhesin of CS4 fimbriae on wild type ETEC strain BANG10-SP (Escherichia coli (ETEC) strain BANG10-SP). In words: cell-based or functional assay.
The target of assay [6] is T3, CsbD L85I/H144A, tip adhesin of CS17 fimbriae on wild type ETEC strain LSN02-013966/A (Escherichia coli (ETEC) strain …).
T3 chain: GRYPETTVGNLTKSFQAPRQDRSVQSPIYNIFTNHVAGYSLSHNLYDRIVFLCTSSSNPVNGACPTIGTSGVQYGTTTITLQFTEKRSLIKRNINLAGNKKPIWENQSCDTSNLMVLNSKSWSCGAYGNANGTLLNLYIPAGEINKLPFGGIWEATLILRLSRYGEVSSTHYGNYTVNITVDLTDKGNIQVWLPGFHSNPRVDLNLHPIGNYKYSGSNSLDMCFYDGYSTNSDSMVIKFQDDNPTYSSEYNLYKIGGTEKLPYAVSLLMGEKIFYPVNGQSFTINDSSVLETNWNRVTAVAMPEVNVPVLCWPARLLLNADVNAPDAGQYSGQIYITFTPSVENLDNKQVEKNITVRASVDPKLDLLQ
In words: cell-based or functional assay.

For assay [7], the target named is T4, CsbD, tip adhesin of CS17 fimbriae on wild type ETEC strain WS6788A (Escherichia coli (ETEC) strain WS6788A).
T4 chain: T3 chain with I67L, A126H
In words: cell-based or functional assay.

Assay [8] deals with T2, CfaE, tip adhesin of CFA/I fimbriae on …. Kind of assay: cell-based or functional assay. The source holds these as a separate data set.
The target of assay [9] is T5, dsc19CotD6xhis (C91f), donor strand complemented recombinant CS2 fimbrial tip adhesin CotD (Escherichia coli (ETEC) strain C91f).
T5 construct: also called dscCotD; CS2 adhesin
T5 chain: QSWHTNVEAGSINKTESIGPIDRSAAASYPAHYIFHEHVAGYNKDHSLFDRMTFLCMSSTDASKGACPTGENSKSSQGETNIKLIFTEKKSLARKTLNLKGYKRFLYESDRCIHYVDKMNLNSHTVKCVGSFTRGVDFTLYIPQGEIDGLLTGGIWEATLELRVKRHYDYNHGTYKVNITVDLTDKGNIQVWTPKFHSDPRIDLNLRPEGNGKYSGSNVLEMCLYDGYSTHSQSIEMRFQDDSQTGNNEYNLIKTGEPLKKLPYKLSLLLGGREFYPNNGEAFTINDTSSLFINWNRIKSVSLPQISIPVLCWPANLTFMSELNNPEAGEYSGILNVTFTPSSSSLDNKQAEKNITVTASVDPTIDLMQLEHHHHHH
Kind of assay: ELISA on coated adhesin.

The target of assay [10] is T6, dsc19CsbD6xhis (WS6788A), donor strand complemented recombinant CS17 fimbrial tip adhesin CsbD (Escherichia coli (ETEC) strain WS6788A).
T6 construct: also called dscCsbD; primary CsbD
T6 chain: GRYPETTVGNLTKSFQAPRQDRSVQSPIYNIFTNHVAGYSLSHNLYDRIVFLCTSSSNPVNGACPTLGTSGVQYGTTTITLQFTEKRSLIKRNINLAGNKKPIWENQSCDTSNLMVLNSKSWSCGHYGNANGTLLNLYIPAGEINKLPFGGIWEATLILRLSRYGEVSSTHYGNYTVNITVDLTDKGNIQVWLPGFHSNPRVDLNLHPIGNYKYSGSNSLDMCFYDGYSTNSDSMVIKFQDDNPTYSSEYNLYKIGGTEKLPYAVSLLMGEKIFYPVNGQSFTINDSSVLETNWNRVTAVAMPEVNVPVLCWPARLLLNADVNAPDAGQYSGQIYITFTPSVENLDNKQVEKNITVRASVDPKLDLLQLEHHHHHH
Kind of assay: ELISA on coated adhesin. Background: In an ELISA, binding on a coated surface is turned into a signal by an enzyme label.

In assay [11] the target is T7, CfaE PD, pilin domain (residues 203-383) of CfaE (Escherichia coli (ETEC) strain H10407).
T7 construct: Tag not written for this construct; also called CfaE pilin domain
T7 chain: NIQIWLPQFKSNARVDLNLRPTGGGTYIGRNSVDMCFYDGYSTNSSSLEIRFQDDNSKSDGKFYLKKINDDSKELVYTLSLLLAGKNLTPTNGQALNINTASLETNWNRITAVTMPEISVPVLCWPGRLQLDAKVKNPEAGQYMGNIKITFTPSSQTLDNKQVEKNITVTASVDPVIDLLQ
In words: ELISA on coated CfaE domains (FIG. 10).

B1: anti-CfaE mouse mAb P8D10 (antibody, V domains shown)
VH: QIQLVQSGPELKKPGETVKISCKASGYTFTNYGMNWVKQAPGKGLKWMGWINTYTGQSTYADDFKGRFAFSLETSASTAHLQISNLKNEDAATYFCARMEYGNYENALDYWGQGTSVTVSS
VL: DIVMTQSHKFMSTSIGDRVSITCKASQDVSTAVVWYQQKPGHSPKLLIYSASYRYTGVPDRFTGSGSGTDFTFTISSVQAEDLAVYYCLQHFSTPRTFGGGTNLEIK
notes: also called full length P8D10 mAb
With B1, the “MIC in HAI” value is > 250 µg/mL in [1]; > 250 µg/mL in assay [2]; > 250 µg/mL in [3]; 1.2 µg/mL in assay [4]; > 250 µg/mL in assay [5]; > 250 µg/mL in assay [6]. In assay [7], the “MIC in HAI” value was > 250 µg/mL. In assay [8], the “fold reduction of ETEC H10407 binding to Caco-2 cells” value is > 4 fold. Besides, the binding result in assay [9] and in assay [10] was “no binding (tested: mAb 2 ug/ml)” in each case.

B2: anti-CfaE mouse mAb P1F9 (antibody, V domains shown)
VH: QVQLQQPGAELVKPGASVKLSCKASGYTFTSYWMHWVRQRPGQGLDWIGEIDPSDSYINYNQKFKGKATLTVDKSSSTAYMQLSSLTSEDSAVYYCGRKSLGVSVLAYWGQGTPVTVSA
VL: DIVMTQSHKFMSTSVGDRVSISCTASQDVNAAVAWYQQKPGQSPKLLIYWASTRHTGVPDRFTGSGSGTDYTLTISSVQAEDLALYYCQQHYSTPLTFGAGTKLELK
For B2, the binding result in assay [11] is given as “binds”; in assay [9], “no binding (tested: mAb 2 ug/ml)”; in assay [10], “no binding (tested: mAb 2 ug/ml)”. Moreover, the “MIC in HAI” value in [1] was > 250 µg/mL; in assay [2], > 250 µg/mL; in assay [3] it was > 250 µg/mL; in assay [4], 1.5 µg/mL; in [5], > 250 µg/mL; in assay [6], > 250 µg/mL. Besides, the “MIC in HAI” value in [7] was > 250 µg/mL.
